Assay: soluble on expression in E. coli; label from the status in PepcDB or PDB records
For “HHHHHHHHHHMPPKGWRKDAQGNYPTTSYIKEQENITIQDLLFPKSTIVNLAREVPQQSGKKLLINKDASLALQRGATVFVNHLLLFAREIAKSQDKKSCSVDDVLSALDHIGHSALKGPVRDKLDEYQAAVEQRKKEKLDSGEVDADGDIDMGEDKENVPVEKVKEHDEIEEQGDALQDVEESSEKKQKTESQDVETRVQNLEQT”, the “soluble on expression in E. coli” value was “not soluble”.
With “GTEDLYFQSHMTIAVTGSIATDHLMRFPGRFSEQLLPEHLHKVSLSFLVDDLVMHRGGVAGNMAFAIGVLGGEVALVGAAGADFADYRDWLKARGVNCDHVLISETAHTARFTCTTDVDMAQIASFYPGAMSEARNIKLADVVSAIGKPELVIIGANDPEAMFLHTEECRKLGLAFAADPSQQLARLSGEEIRRLVNGAAYLFTNDYEWDLLLSKTGWSEADVMAQIDLRVTTLGPKGVDLVEPDGTTIHVGVVPETSQTDPTGVGDAFRAGFLTGRSAGLGLERSAQLGSLVAVLVLESTGTQEWQWDYEAAASRLAGAYGEHAAAEIVAVLA” the “soluble on expression in E. coli” value was “soluble”.
With “MAHHHHHHMEQQVIAVHYQRMEEWLSDRKAVLGKKHKKEFFRLMELAPKLEQLVRYEIPAQHKQNKRLSGLLDDAYGSIEDAAKARKNLEERQKRFFQEYGLVESQGAEEEDLEAVIEAKIASSTTSLNEALREFGRSPHLESFREAYVRAAKMYSMGMYDDNVFSLHLPWLDRVYQERFYKSKVDIHHHEQHQKQRAGERDQVAVKASTGPCNIDWGDEDTVDLVDVGETVEIKWDEEALEVAVEGAVRNCSENNKRMDDGCEEKPTDTVKGIFTIDVSNAAHRKNILTELQAFACFASERSSMDDESLAEPAAAVEVLVKKLTASTEAVFVRMKTTPTLRFSFMEEVRRLQRGIAAASMRKSNSQARVHQIQEEIERLGPQLDALLIAAGNCRDECLAELLKMFPGRTVTIVGDINKYL” the “soluble on expression in E. coli” value was “not soluble”.
For “MHHHHHHGSMGMMSRYEELRKELPAQPKVWLITGVAGFIGSNLLETLLKLDQKVVGLDNFATGHQRNLDEVRSLVSEKQWSNFKFIQGDIRNLDDCNNACAGVDYVLHQAALGSVPRSINDPITSNATNIDGFLNMLIAARDAKVQSFTYAASSSTYGDHPGLPKVEDTIGKPLSPYAVTKYVNELYADVFSRCYGFSTIGLRYFNVFGRRQDPNGAYAAVIPKWTSSMIQGDDVYINGDGETSRDFCYIENTVQANLLAATAGLDARNQVYNIAVGGRTSLNQLFFALRDGLAENGVSYHREPVYRDFREGDVRHSLADISKAAKLLGYAPKYDVSAGVALAMPWYIMFLK”, the “soluble on expression in E. coli” value was “soluble”.
With “MGSDKIHHHHHHVKTNLEHWVTLQEKGYFENHPFYQERQVNDDAARVEKATPLTKDMKIAIIGCGYGRESASFCRRVRKVYGIDVSWTILAKALERMLADNHVNFTPVLASQWKTILPDGGLDLVYSVVVFQHLTRDLVDDYIGGLKGKLRPGGRFYVQFCDSDTGEADADLRFYEPNVRWTEDDIRILARRHGLDLLSLDSERVTPTASWHWALMEKADDR” the “soluble on expression in E. coli” value was “not soluble”.
With “MSTIDFRPYGGFIFDMDGTLIDTMPAHLAAWQATADRFDFPFCQEWLHSLGGMPSFKIVAELNRHYGLSLDPQTVSKFKMETFAAMELQGDVIQCTGIVLEEYLGQKKIAVGTGSQRESAMRLLSHAGLIDRLDAVVTASDVENHKPCPDTFLLAADRLGIDAQNCLVFEDTELGKRAAHSAGMDCVMVEGNNLVFYPKR” the “soluble on expression in E. coli” value was “not soluble”.
With “SHMTDDKKKGKFIVFEGLDRSGKSTQSKLLVEYLKNNNVEVKHLYFPNRETGIGQIISKYLKMENSMSNETIHLLFSANRWEHMNEIKSLLLKGIWVVCDRYAYSGVAYSSGALNLNKTWCMNPDQGLIKPDVVFYLNVPPNYAQNRSDYGEEIYEKVETQKKIYETYKHFAHEDYWINIDATRKIEDIHNDIVKEVTKIKVEPEEFNFLWS” the “soluble on expression in E. coli” value was “soluble”.
In the case of “MNTMEEKYILSDRGKVYYWIKESNSVFAKNLIFLPGLTANHHLFDFQIQYFSKNHNVLVWDAPAHGKSRPYLDFSYSNLVEELKVILDKQNMKKVVLIGQSAGGFVAQSFIVKYPNMVEGLMMIGTCPYGTDYYSKSDIFWLKQTEWMLKLFPDKLLRNIISKMCGATSEGRRSMLKMLEGYEKKELCHLMYLGFAGFIPEIQDLNIHCPVCLVVGDKDKTGKVRKYNEQWHNKTGYPLHIIKNASHNVNVDKPNELNQIMDIFIKQLNI”, the “soluble on expression in E. coli” value is reported as “not soluble”.
In the case of “MGSDKIHHHHHHMMSMKIFETTAPHPEASLLTAFSKNALDRFAEKRTEECVAEALKVDGTHIFAFSGNRLVLKHDEQVIDPLFSAYELAELQPDFDNAVLLGYRETGEPRIAVPVAVAEDQLASHYKLADARTLYRDHLLDEELLSEVAQAVSLTHWNADNRFCGRCGGTMEQRIGGYKRICASCSHTIFPRTDPVVIMMTIDIERDLCLLGRGAHFASGMYSCLAGFVEPGETIEQAVRRETHEESGVEIGRVRYHASQPWPMPHTLMIGCYAEALSSDIARDEIELEDCRWFTREEVAKMLEAPAGEGFSAPPIGAIAHRLMRDWVEWPE”, the “soluble on expression in E. coli” value is reported as “not soluble”.
For “MDMERNRLYFFYKRDDKLIERVKPLIELAERGPFVVVDDYREANIIVSIGDDGAFLQAVRQTGFLPDRLYVGVSVLPARGFYCDFHIDDIDHMVEAAKNWKLEVRRYPIIEVTIDGAASFFCLNECSIRSQIIKTMAIDVFIDDLHFETFRGDGIIVSTPTGSTGYNKSVHGAVVDPLLPCFQVSELASLNSNRYRTLGSPFILSGSRTLTLKMSEETSHFPIIGLDNEALSIQHIERIDIRLSDRVVKTVRLKDNSFWDKVKRVFL”, the “soluble on expression in E. coli” value was “not soluble”.
For “MKESMSSVDIKYITEELKDMIVGSRVEKIYHEGNEIRFKLHKTGVGRVDLLIEAGKRIHITTYVKENLQPTSFAMLLRKYLSGKFLEDIRQYEFDRVVILSFGEYFLIAELFGRGNIIFVTKDWEIIGALRYEEFKDRAIKPKIKYVFPPSRANPLKVSFEEFKEIILNSQGTEIVRALAKNFSIGGLYSEETLLRAKIDKDRKVDELSEEELRLVYDTLLTVLNDEKKPNIVYNKEGVMVDVVPIDLQWYREYTKRYYESFSEALDEYFGKLTIEKARLEKTKQLEERRKALEISLRRIEEQIKGFEKEAMTNQEKGDALYAHYSIVNEILRVISSALKQYGVEEVKKRIEEGKKAGYPWAKMIIDVTDNKVTLNLDGIKVSLDVEKSLEENAELYYERAKKAKKKLEGAKIAYEETKRKLIELEKEIERESKEINIKKITRKKKKWFE”, the “soluble on expression in E. coli” value was “not soluble”.
With “MTHLFALSELPLDEIHRLLDEAEAFRSGRIWRPAAPMYVANLFFEPSTRTKCSFEMAERKLGLHVIPFDPERSSVQKGETLYDTVRTLEAIGVDAVVIRHHEDAYFEALRHAVGIPIINAGDGCGHHPTQSLLDLLTIRQEFGAFTGLTVAIIGDIRHSRVARSNAEVLTRLGANVLFSGPAEWKDETNPYGTYVEVDEAIARADVVMLLRIQHERHAETMGLTKEEYHARYGLTLERARRMKSGAIILHPAPVNRGVEIASELVEAKASRIFKQMENGVYVRMAVLKRAMEGRMEHGRMAEKWHVVQ” the “soluble on expression in E. coli” value was “soluble”.
For “MGHHHHHHGGHMSLRTEEEMFQLIMDVAKQEEHIRAVGMVGSRTNVKAPKDSFQDFDIVYIVEPCAEFFETATWIAKFGQPLIMQRPKEMTLFPTEPKTRETFLMLFEDGQRIDLTLCPLAEKDNWHEGDSLAIILLDKDENLPPLPVASDKNYTVTVPDQQQFNDCCNEFWWVSTYVVKGLCRNELFYAVTHLYEYCQQELLRLLSWQAAWQEPEPISVGKQFKYLKNYVTPDTMDQLASLLDFSSKEACWNSLIKTQAFFDVVAQDFAKMAQFTYHLQEAKKVTEYTNSLRLKDLQGKEGGS”, the “soluble on expression in E. coli” value was “not soluble”.
For “MGHHHHHHGGHMSLHSGSVEHCIKGRSRRAAPRSEHTGRMADIARKASAHWEGDLKSGNGTITTESGVLSQAQYSFKTRFENGKGTNPEELLASAHAGCFTMQLSALLAEHGHEIKALDTDATCEMVKDGPGFKINHMHLRVRAQLTGSDQADFEAHVKDAAEKCPLSRIMQGNVEVTHEAILEGEGGS”, the “soluble on expression in E. coli” value was “soluble”.
For “MKLLSSIEQACDICRLKKLKCSKEKPKCAKCLKNNWECRYSPKTKRSPLTRAHLTEVESRLERLEF”, the “soluble on expression in E. coli” value was “soluble”.
For “MGSDKIHHHHHHMNEAAKQLYITQPSLSNAVRNLETEMGIQIFIRNPKGITLTKDGMEFLSYARQILEQTALLEERYKGDNTSRELFSVSSQHYAFVVNAFVALFNGTDMTQYELFLRETRTWEIIDDVKNFRSEIGVLFLNSYNRDVLTKLFDDNSLIATTLFTTTPHIFVSKSNPLANRKKLNMKDLEDYPYLSYDQGLHNSFYFSEEMMSQIPHPKSIVVSDRATLFNLMIGLDGYTVATGILNSKLNGDEIVAIPLDVDDVIDIVYIRHDKANLSKMGQKFIDYLLEEVSFNHKNKQS”, the “soluble on expression in E. coli” value was “not soluble”.
For “MGSDKIHHHHHHMLEFVNVSKSFWTGTQRKIILDKVSFTVELGTSLGILAPNGTGKTTLINMMAGLEKPDEGEIYRGCKISFPLGFMGGVINRLSAMENCRYIARLYGLDPDYVESYCRWLCGLNEYFDQPLGTYSAGMKSRFSFALMLALDFDIYLIDEGMPSSTDVEFNRKAGIILQERLETTTIVIVSHQPRTLEKFANTAAVLMNGQLHMFETLEEAKQLYDYETQG”, the “soluble on expression in E. coli” value was “not soluble”.
With “MGSDKIHHHHHHMNFIKTISPIQKINFNGFEFYIKRDDLLGEINGNKARKLAFYIHQRYPKNQSFVSYGGSQSNALAALSIFAKQRSYKLVFACEKISTFLKNNPCGNYALALENGVDFVENIHSLSLKQFALSLCKKDDVFIEQGIANLEAQYGYMELAQEIQMQSQSLKLDFDIFLPSGTGTSAAFLAKYSKFKVFTCACVGDIKYLKKQILTLDPSYDFSNLEFLTSDKKYHFAKPYKEFYELYMDLKLKCNIEFDLLYDILGLSIALKQEWKKPLLYIHQGGILGNSTMLERYKFKKSV” the “soluble on expression in E. coli” value was “not soluble”.
For “MGLTTMGLTTMGLTTKGLTTMGLTTKGLTTKGLTTMGLTTKGFTTKGLTTMGVTTKGLTTMGLTTKGLTTKGLTTKGFTTKGLTTMGLATMGLTTKGLTTMGLTTMGLTTKGLTTKGLTTKGLTTKGLTTKGLTTMGLTTKGFTTKGLTTMGLTTMGLATMGLTTKGLTTMGLTTKGFITKGLTTMGLATMGLTTMGLTTKGLTTKGLTTKGLTTMGLTTKGFITKGLTTMGLATMGLTTMGLTTKGLTTMGLTTMGLTTKGLTTKGLTTKGLTTKGLTTKGLTTMGLTTKGFTTKGLTTMGLATMGLATMGLTTMGLTTKGLTTKGLTTKGLTTKGLTTMGLTTKGFTTKGLTTMGLTTMGLTTKGLTTKGLTTKGLTTKGLTTMGLTTKGFTTKGLTTMGLATMGLTTKGLTTMGLTTKGFITKGLTTMGLATMGLTTMGLTTKGLTTKGLTTKGLTTMGLTTMGLTTMGLTTMGLTTMGLTTMGLTTMGLTTKGLTSQGVMDQAGVNRVEGEPINRLRTCEGKGNGRGDMQGVGNLGKALRGREDSLIVSSETRGFPRMGLWPGFPPIEYQGQVQSLE”, the “soluble on expression in E. coli” value was “not soluble”.
For “GDSTILKVLQSNIQHVQLYENPVLQEKALTCIPVSELKRKAQEKLFRARKLDKGTNVSDEDFLLLELLHWFKEEFFRWVNNIVCSKCGGETRSRDEALLPNDDELKWGAKNVENHYCDACQLSNRFPRYNNPEKLLETRCGRCGEWANCFTLCCRALGFEARYVWDYTDHVWTEVYSPSQQRWLHCDACEDVCDKPLLYEIGWGKKLSYIIAFSKDEVVDVTWRYSCKHDEVMSRRTKVKEELLRETINGLNKQRQLSLSESRRKELLQRIIVELVEFISPKTPRPGLEHHHHHH”, the “soluble on expression in E. coli” value was “soluble”.
In the case of “TVTSASDQTTTFIQTISPTAIEISKTYDLYASVLLAQAILESSSGQSDLSKAPNYNLFGIKGEYKGKSVQMPTLEDDGKGNMTQIQAPFRAYPNYSASLYDYAELVSSQKYASVWKSNTSSYKDATAALTGLYATDTAYASKLNQIIETYSL”, the “soluble on expression in E. coli” value is reported as “not soluble”.
With “MRSAVTFFTFFLDKAEPISTRDTSSESIIPEQEKRRDDMRAVVLVPFLKQQRENRDAASAPAAPGRSVEAKLEEAKGLALAIDLEVTQGLVVPVNQPRPATLFGTGKIEEIGHLLDETNSGLVIVDHPLTPVQQRNLESSGTPRLSTAPVAAALEHHHHHH” the “soluble on expression in E. coli” value was “not soluble”.

Source: the DeepSol protein solubility set
